From patent publication US20200079850A1 (SUTRO BIOPHARMA, published 2020)
Where a chain is given by its changes, count along the chain named.

What was measured:
[1] = biological target: T1, recombinant human LAG3 protein (rhLAG3), HIS-tagged (ACRO) or biotinylated (R&D Cat #2319-C3) (human, UniProt P18627 23-450, biotinylated in part of the assays); assay: flow cytometry competition, rhLAG3 binding to Daudi cells; competitor MHCII
T1 sequence: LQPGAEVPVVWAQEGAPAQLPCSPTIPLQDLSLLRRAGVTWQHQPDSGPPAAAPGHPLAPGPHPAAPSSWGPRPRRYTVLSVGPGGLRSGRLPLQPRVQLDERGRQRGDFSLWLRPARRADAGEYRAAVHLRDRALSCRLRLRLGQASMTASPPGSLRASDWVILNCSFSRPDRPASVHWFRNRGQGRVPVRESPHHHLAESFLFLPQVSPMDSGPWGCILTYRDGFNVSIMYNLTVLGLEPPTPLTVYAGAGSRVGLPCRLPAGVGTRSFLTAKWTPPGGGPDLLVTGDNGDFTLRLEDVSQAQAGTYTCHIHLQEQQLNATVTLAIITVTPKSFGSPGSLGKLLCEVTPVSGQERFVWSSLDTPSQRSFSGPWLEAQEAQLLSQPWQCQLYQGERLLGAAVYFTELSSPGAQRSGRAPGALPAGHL
Procedure: DAUDI cells express high levels of Major Histocompatibility Class II (MHCII) molecules, a natural ligand for LAG3, on the cell surface. DAUDI cells were used to screen for antibodies that inhibit binding of HIS-tagged (ACRO) or biotinylated recombinant human LAG3 protein (rhLAG3) to MHCII expressed on the cell surface.
DAUDI cells were cultured in RPMI w/10% FCS Pen/Strep and Gln and split every 3-4 days at 10^5 cells/ml. Cells were washed 2× with FACS buffer (PBS w/2% FCS), […] at a final concentration of 1×10⁶ cells/ml and seeded at 100 μl per well on 96 well polypropylene plates. Plates were spun at 1500 rpm for 5 minutes and cell pellets were suspended in 50 μl FACS buffer containing 8 point 1:3 dilutions (2× concentrated) of anti-LAG3 antibody variants, starting from high concentration of −600 nM. 50 μl FACS buffer containing 10-20 μg/ml of the HIS-tagged rhLAG3 protein or 40 μg/ml of the biotinylated rhLAG3 protein were then added to the cells. Cell were then incubated in ice for 1 hr, washed with FACS buffer and incubated for 1 hr in ice with 50 μl FACS buffer containing 2 μg/ml R-Phycoerythrin-conjugated Streptavidin (eBiosciences) or 1 μg/ml R-Phycoerythrin-conjugated anti-HIS IgG (Abcam). Cell were washed 2× with FACS buffer and fixed for 10 minutes in 200 μl PBS w/2% PFA prior to acquisition.

[2] = biological target: T2, human LAG3-Fc (R&D Systems #2319-L3) (human, UniProt P18627 23-450); assay: SPR (Biacore), antibody captured by anti-Flag, LAG3-Fc as analyte, 25 C
T2 construct: Bought protein; also called Human LAG3 (Biacore)
T2 sequence: T1 sequence
Procedure: Anti-Flag M2 IgG (Sigma-Aldrich # F9291) was immobilized onto a CMS chip (GE Life Sciences) using amine coupling chemistry (from Amine Coupling Kit, GE Life Sciences). The immobilization steps were carried out at a flow rate of 25 μL/min in 1×HBS-EP+ buffer (GE Life Sciences; 10×Stock diluted before use). The sensor surfaces were activated for 7 min with a mixture of NHS (0.05 M) and EDC (0.2 M). The Anti-Flag M2 IgG was injected over all 4 flow cells at a concentration of 25 μg/mL in 10 mM sodium acetate, pH 4.5, for 7 min. Ethanolamine (1 M, pH 8.5) was injected for 7 min to block any remaining activated groups. An average of 12,000 response units (RU) of capture antibody was immobilized on each flow cell.
Off-rate and kinetic binding experiments were performed at 25° C. using 1×HBS-EP+buffer. Test and control antibodies were injected over the Anti-Flag surface at concentrations of 5-10 μg/mL for 12 seconds at a flow rate of 10 μL/min on flow cells 2, 3 and 4, followed by a buffer wash for 30 seconds at the same flow rate. Kinetic characterization of antibody samples was carried out with a single concentration of antigen (for off-rate ranking) or a dilution series of antigen (for kinetic characterization) and 1 injection of 0 nM antigen. After capturing ligand (antibody) on the anti-Flag surface, the analyte (human LAG3-Fc, R&D Systems #2319-L3; or cynomolgus LAG3-Fc, accession # NC 022282.1) was bound at 50, 25, 12.5, 6.25, and 0 nM for 180 seconds, followed by a 600 second dissociation phase at a flow rate of 50 μl/min Between each ligand capture and analyte binding cycle, regeneration was carried out using 2 injections of 10 mM glycine pH 2.0 for 30 seconds at 30 μL/min, followed by a 30 second buffer wash step.
The data were fit with the Biacore T200 Evaluation software, using a 1:1 Langmuir binding model. KD (affinity, nM) was determined as a ratio of the kinetic rate constants calculated from the fits of the association and dissociation phases.

[3] = biological target: T3, human LAG3 expressed on the cell surface (CHO-LAG3, 293T-LAG3 cells) (human, UniProt P18627 23-525); assay: flow cytometry, CHO cells expressing human LAG3
T3 construct: Stably transfected CHO or HEK293T cells; also called Human LAG3 (CHO); Human LAG3 (293T)
T3 sequence: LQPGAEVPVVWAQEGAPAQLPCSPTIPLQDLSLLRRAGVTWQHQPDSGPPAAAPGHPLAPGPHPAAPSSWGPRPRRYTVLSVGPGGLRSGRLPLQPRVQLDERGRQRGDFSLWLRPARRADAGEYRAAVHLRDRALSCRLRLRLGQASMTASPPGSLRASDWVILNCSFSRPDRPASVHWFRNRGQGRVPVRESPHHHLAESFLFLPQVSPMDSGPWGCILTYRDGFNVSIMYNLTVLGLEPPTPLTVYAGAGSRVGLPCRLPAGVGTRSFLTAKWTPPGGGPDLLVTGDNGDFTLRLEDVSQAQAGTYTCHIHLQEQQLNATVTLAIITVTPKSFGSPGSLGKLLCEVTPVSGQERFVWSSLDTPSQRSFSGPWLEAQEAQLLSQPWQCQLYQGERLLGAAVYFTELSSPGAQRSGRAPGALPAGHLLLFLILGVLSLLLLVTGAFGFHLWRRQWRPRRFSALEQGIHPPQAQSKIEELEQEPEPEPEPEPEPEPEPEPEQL
Procedure: LAG3 antibody variants were tested in a fluorescence-activated cell sorting (FACS) cell-binding assay. Chinese Hamster Ovary (CHO) cells or HEK293T cells stably expressing the human target molecule LAG3 on the cell surface (CHO-LAG3, 293T-LAG3) were used to screen for cell binders by flow cytometry. Parental CHO or 293T cells were used as a negative control to determine background-binding levels. Cells were cultured in RPMI with 10% FCS Penicillin/Streptomycin (or Pen/Strep) and glutamine (or Gln) and split every 3-4 days at 10⁵ cells/ml.
A mix of parental CHO cells and CHO-LAG3 cells (or 293T and 293T-LAG3 cells) was prepared as follows: Parental CHO cells were washed 2× in PBS then incubated in PBS containing 1 nM CellTrace™ Oregon Green488® (Life Technologies) at 37° C. for 30 minutes. […] Parental CHO cells and CHO-LAG3 cells were then mixed to obtain a 1:1 cell suspension and seeded at 100 μl per well on 96 well polypropylene plates. Plates were spun at 1500 rpm for 5 minutes and cell pellets were suspended in 50 μl FACS buffer containing 6-12 point dilutions of anti-LAG3 variants starting from concentrations of ˜100-200 nM antibody, dispensed using BioMekFX (Beckman Coulter). Cells were then incubated on ice for 1 hr, washed with FACS buffer and incubated for 1 hr on ice with 50 μl FACS buffer containing 2.5 μg/ml R-Phycoerythrin-conjugated Goat Anti-Human IgG (Jackson ImmunoResearch) or AF647-conjugated Goat Anti-mouse IgG (Life Technologies) dispensed using BioMekFX (Beckman Coulter). Cells were then washed 2× with FACS buffer and fixed for 10 minutes in 200 μl PBS with 2% PFA prior to fluorescence detection. Samples were acquired using a Beckton Dickinson LSRII FACS. Mean Fluorescence Intensity of LAG3 antibody binding was analyzed using Tree Star, Inc. FlowJo® software.

B1: 421.61.4.5G11 (antibody, V domains shown)
VH: EVQLQQSGAELVRSGASVKLSCTASGFNIKDYYMHWVKQRPEQGLEWIAWIDPENGDTEYAPKFQGRATLTADTSSNTAYLHLSSLTSEDTAVYYCNAPDALDYWGQGTSVTVSS
VL: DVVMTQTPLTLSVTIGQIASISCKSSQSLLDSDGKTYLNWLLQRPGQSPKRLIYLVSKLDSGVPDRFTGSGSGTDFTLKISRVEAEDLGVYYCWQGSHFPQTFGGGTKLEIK
- IC50 [1]: 64.3 nM
- Kd [2]: 10.3 nM
- koff [2]: 0.000515 s⁻¹
- kon [2]: 50200 M⁻¹ s⁻¹
- Kd [3]: 18 nM

B2: SRP1449-B03 (scFv, V domains shown)
VH: QVQLVESGGGVVQPGRSLRLSCAASGFTFSSYGMHWVRQAPGKGLEWVAAIWYDASYKYYADSVKGRFTISRDNSKNTLYLQMNSLRAEDTAVYYCAREWAVASWDYALDVWGQGTTVTVSS
VL: EIVLTQSPGTMSLSPGERATLSCRASQSVSSSYLAWYQQKPGQAPRLLIYGASSRATGIPDRFSGSGSGTDFTLTISRLEPEDFAVYYCQQYDRSPLTFGPGTKVDIK
- IC50 [1]: 1 nM
- Kd [2]: 0.64 nM
- koff [2]: 0.000302 s⁻¹
- kon [2]: 472000 M⁻¹ s⁻¹
- Kd [3]: 1.92 nM

B3: SRP1449-B07 (scFv, V domains shown)
VH: B2 VH with A50V, A55G, Y57N, A103S, A108G, L109M
VL: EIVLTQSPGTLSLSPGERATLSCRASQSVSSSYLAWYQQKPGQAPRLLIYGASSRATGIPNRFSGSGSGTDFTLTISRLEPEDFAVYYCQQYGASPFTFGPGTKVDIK
- IC50 [1]: 1.2 nM
- Kd [2]: 0.676 nM
- koff [2]: 0.000536 s⁻¹
- kon [2]: 794000 M⁻¹ s⁻¹
- Kd [3]: 1.06 nM
